Laboratory results reported in IntAct's records for PubMed 17006543.

B1: Beta-adrenergic receptor kinase 1 (Homo sapiens), P25098 (parent)
chain: MADLEAVLADVSYLMAMEKSKATPAARASKKILLPEPSIRSVMQKYLEDRGEVTFEKIFSQKLGYLLFRDFCLNHLEEARPLVEFYEEIKKYEKLETEEERVARSREIFDSYIMKELLACSHPFSKSATEHVQGHLGKKQVPPDLFQPYIEEICQNLRGDVFQKFIESDKFTRFCQWKNVELNIHLTMNDFSVHRIIGRGGFGEVYGCRKADTGKMYAMKCLDKKRIKMKQGETLALNERIMLSLVSTGDCPFIVCMSYAFHTPDKLSFILDLMNGGDLHYHLSQHGVFSEADMRFYAAEIILGLEHMHNRFVVYRDLKPANILLDEHGHVRISDLGLACDFSKKKPHASVGTHGYMAPEVLQKGVAYDSSADWFSLGCMLFKLLRGHSPFRQHKTKDKHEIDRMTLTMAVELPDSFSPELRSLLEGLLQRDVNRRLGCLGRGAQEVKESPFFRSLDWQMVFLQKYPPPLIPPRGEVNAADAFDIGSFDEEDTKGIKLLDSDQELYRNFPLTISERWQQEVAETVFDTINAETDRLEARKKAKNKQLGHEEDYALGKDCIMHGYMSKMGNPFLTQWQRRYFYLFPNRLEWRGEGEAPQSLLTMEEIQSVEETQIKERKCLLLKIRGGKQFILQCDSDPELVQWKKELRDAYREAQQLVQRVPKMKNKPRSPVVELSKVPLVQRGSANGL

Variants of: B1
Details: with ubc_human UBC

| effect of a mutation on the interaction | Variant |
| --- | --- |
| decreasing interaction | K30R |
| decreasing interaction | K19R |
| decreasing interaction | K31R |
